Results from patent US11497796B2, “Agents directed against a cis RGMa/neogenin interaction or lipid rafts and use of the same in methods of treatment” (UNIVERSITY HEALTH NETWORK, priority 2013, dated 2022).

T1: 6FNIII-domain of Neogenin (His-6FNIII) (Gallus gallus, UniProt Q90610)
T1 construct: His; made in house
T1 sequence (Q90610 429-1036): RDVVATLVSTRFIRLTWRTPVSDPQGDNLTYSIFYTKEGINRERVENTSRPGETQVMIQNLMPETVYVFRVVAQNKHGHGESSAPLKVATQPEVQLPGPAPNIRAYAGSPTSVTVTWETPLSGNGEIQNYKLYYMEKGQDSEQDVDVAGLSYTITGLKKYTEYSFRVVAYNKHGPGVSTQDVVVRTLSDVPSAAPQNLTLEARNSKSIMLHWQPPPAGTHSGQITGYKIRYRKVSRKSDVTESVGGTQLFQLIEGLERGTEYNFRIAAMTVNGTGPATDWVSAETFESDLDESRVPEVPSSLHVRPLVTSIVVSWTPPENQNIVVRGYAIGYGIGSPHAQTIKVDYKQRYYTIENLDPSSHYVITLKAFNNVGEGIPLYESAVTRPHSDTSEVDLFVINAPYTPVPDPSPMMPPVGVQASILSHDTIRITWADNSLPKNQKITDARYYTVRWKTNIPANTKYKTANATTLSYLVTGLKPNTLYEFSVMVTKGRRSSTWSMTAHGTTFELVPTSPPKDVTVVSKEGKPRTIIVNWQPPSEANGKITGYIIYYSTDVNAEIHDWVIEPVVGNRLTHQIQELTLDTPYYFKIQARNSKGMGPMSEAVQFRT

T2: 6FNIII-domain of Neogenin (Gallus gallus, UniProt Q90610)
T2 construct: made in house
T2 sequence (Q90610 429-1036): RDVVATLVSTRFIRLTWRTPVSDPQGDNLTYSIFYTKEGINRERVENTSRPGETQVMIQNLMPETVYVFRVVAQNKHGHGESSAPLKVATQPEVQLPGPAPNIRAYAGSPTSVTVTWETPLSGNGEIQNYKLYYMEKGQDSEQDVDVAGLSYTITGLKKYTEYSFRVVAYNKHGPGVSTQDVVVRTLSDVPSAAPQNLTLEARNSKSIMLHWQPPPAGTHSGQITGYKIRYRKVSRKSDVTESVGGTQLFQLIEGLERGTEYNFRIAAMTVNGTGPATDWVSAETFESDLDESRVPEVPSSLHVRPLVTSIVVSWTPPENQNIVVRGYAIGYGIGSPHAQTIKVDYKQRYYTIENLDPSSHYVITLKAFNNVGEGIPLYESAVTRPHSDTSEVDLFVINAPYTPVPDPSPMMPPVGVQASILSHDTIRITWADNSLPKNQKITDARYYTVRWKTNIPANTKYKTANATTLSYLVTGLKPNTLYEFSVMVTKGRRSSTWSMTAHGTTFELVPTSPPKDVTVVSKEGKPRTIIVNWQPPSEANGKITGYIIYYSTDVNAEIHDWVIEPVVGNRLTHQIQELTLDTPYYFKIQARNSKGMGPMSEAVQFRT

T3: 4Ig-domain of Neogenin (Gallus gallus, UniProt Q90610)
T3 construct: made in house
T3 sequence (Q90610 1-383): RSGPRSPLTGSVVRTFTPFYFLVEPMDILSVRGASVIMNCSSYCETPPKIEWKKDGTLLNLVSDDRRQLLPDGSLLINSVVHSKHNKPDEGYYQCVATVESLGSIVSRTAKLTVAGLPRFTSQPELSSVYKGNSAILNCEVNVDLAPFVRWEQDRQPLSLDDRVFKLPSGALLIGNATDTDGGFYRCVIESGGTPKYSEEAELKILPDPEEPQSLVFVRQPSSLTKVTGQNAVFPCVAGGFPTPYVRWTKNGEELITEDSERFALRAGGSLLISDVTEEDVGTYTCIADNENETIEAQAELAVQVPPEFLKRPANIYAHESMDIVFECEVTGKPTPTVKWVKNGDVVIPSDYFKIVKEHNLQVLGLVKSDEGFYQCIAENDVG


Assays:
[1] = tested on: retinal explants (retinal ganglion cell neurites); experiment: Retinal explant neurite outgrowth on laminin or myelin; assay type: cell-based, chick; conditions: AY-9944 1 μM, BM15.766 4 μM, 18 hrs
Description: (§1) Retinal explants outgrowth assay. Poly-L-Lysine (PLL; SIGMA; 10 μg/ml) coated glass coverslips were treated with Laminin (10 μg/ml; Invitrogen) and RGMa proteins (5 μg) and incubated for 3 hrs at room temperature. PLL treated coverslips were coated with myelin overnight (6 μg/cm2), followed by coating with Laminin. Temporal retinal explants were cultured on either myelin or protein-coated surfaces in DMEM F-12 media (2% chick serum, 10% FBS) for 18 h. To disrupt rafts, explants were pre-treated with 10 mM MβCD for 12 min or 2 U/ml CO for 1 h at 37° C., washed, and cultured on protein coated coverslips. Explants were then fixed with 4% PFA and stained with Alexa488-fluor-phalloidin (1:50; Molecular Probes). Fiber length was quantified using Image Pro 5.0.
Specifically, retinal explants were prepared from E7 chick embryos, cultured on coverslips coated with on Laminin or myelin, and treated with control (DMSO) or AY-9944 (1 μM) or BM15.766 (4 μM), two inhibitors of cholesterol biosynthesis. After 18 hrs in culture, explants were fixed with 4% PFA and stained with Alexa488-Phalloidin. Neurites were measured using Cellsens software. Retinal explants were cultured on laminin (control) or myelin (the inhibitory compound of the CNS). On laminin, axon growth was normal compared to myelin because myelin inhibited outgrowth.

[2] = tested on: photoreceptor cells; experiment: Photoreceptor survival in rd1 mice (retinitis pigmentosa model); assay type: in vivo, mouse
Description: The rd1 mouse model is a model for human RP and carried a loss-of-function mutation in the gene encoding for the β-subunit of the rod photoreceptor cGMP phosphodiesterase-6.2. This loss-of-function mutation led to an accumulation of cGMP, which caused photoreceptor cell death.
In these studies, intraocular injection of the 4Ig (2 μg/μl) peptide at P9 and P15 was performed and animals were sacrificed at P21 to examine cell survival. […] Injection of 4Ig increased outer nuclear layer (ONL) thickness to about 6 cells (FIG. 19). This measurement was the average thickness of the ONL.
As described above, cholesterol depletion removes lipid rafts. Specifically, mice were treated with daily […] (IP) injections of MβCD from P9 to P21.
To examine the effect of reducing cholesterol synthesis on cell survival, AY-9944 was examined in rd1 mice (FIGS. 20 and 21). Rd1 mice were treated using two intra-peritoneal injections of AY-9944, at P9 and P15 and sacrificed at P21.

[3] = target: T1, 6FNIII-domain of Neogenin (His-6FNIII); experiment: Pull-down assay with peptide-coated beads; assay type: binding; conditions: Western blot with anti-His
Description: (A) RGMa proteins were incubated on plates coated with 4Ig- or 6FNIII-AP. One C- and one N-RGMa domain (N-RGMa^77-113) interacted with 6FNIII. One N-RGMa domain (N-Raft) interacted with 4Ig. (B) Supernatants (Sup) from cells expressing His-6FNIII or His-4Ig, were pulled down (IP) with beads coated with N-Raft, N-RGMa^50-99, and N-inh. Western Blot was then performed with an anti-His antibody to reveal whether or not His-6FNIII or His-4Ig interacted with the coated beads. […] Data are average±SEM (n=3 independent experiments), *p<0.0001. Scale bar, 100 μm. (E) Chick brains were injected with control peptide (Ctrl; N-RGMa^50-99), 4Ig, N-Raft, or Noggin 1 day before preparing membrane fractionations. In control experiments, Neogenin localized to the Flotillin/RGMa-containing lipid raft fraction (as shown in solid lined boxes). 4Ig, N-Raft, or Noggin shifted Neogenin to heavy fractions.
Proteins were coupled to activated CNBr Sepharose beads (Pharmacia) according to supplier instructions. Supernatants from transfected cells were added to coupled beads for 2 h at room temperature (RT). Beads were then washed 6× with PBS plus 0.02% Tween 20, and SDS loading buffer was added. Samples were boiled and subjected to Western blotting.

[4] = tested on: temporal retinal explants (axonal outgrowth); experiment: Retinal explants outgrowth assay; assay type: cell-based, chick; conditions: for effect on axonal outgrowth when provided as growth substrate (in trans): protein as substrate
Description: Poly-L-Lysine (SIGMA; 10 μg/ml) coated glass coverslips were treated with Laminin (Invitrogen; 10 μg/ml) and RGMa proteins (5 μg/ml) and incubated for 3 hours at room temperature. Temporal retinal explants were cultured on protein-coated surfaces for 18 hours. To disrupt the lipid rafts, explants were pretreated with 10 mM methyl-β-cyclodextrin (MβCD) for 12 minutes or 2 U/ml cholesterol oxidase (CO) for 1 hour at 37° C. Explants were then fixed with 4% paraformaldehyde (PFA) and stained with Alexa488-phalloidin. Fiber length was quantified using Image Pro 5.0. For immunolocalization, explants were treated with Cholera Toxin B-FITC (C1655; Sigma; 10 mg/mL) and patched, fixed and stained with Neogenin antibody. Retinal ganglion cells (RGCs) were electroporated with RGMa-His and cultured for 18 hours. The cells were fixed and stained with Neogenin and His-tag antibodies.
as §1
Statistical analysis of retinal outgrowth assays was performed using Student's two-tail t-test using Excel (Microsoft). Results were expressed as the mean±SEM (n=at least 3 independent experiments; 2 duplicates per independent experiment, >10 explants per duplicate).

[5] = target: T2, 6FNIII-domain of Neogenin; experiment: ELISA / AP binding assay of RGMa peptides to Neogenin domains; conditions: Neogenin domains fused to AP
From the text: (§2) Specifically, the 4Ig-domain and 6FNIII-domain of Neogenin were each fused to alkaline phosphatase (AP). The 4Ig-domain and 6FNIII-domain of Neogenin were found in the extracellular portion of Neogenin. Accession No. AAC59662 (SEQ ID NO:1) was the amino acid sequence of Neogenin. The 4Ig-domain was amino acids 1 to 383 of Accession No. AAC59662 (SEQ ID NO:1). The 6FNIII-domain was amino acids 429 to 1036 of Accession No. AAC59662 (SEQ ID NO:1).
(§3) The binding of these fusions to various RGMa peptides were analyzed in an ELISA assay (FIG. 2A).
(§4) To determine if distinct N-terminal regions of RGMa bound the 4Ig- and 6FNIII-domains of Neogenin, peptides were generated that spanned the N-terminal region of RGMa. The amino acid sequence of RGMa was Accession No. NP_989868.1 (SEQ ID NO:6). These peptides were a peptide spanning amino acids 28-73 of RGMa (also referred to herein as “N-Raft”) and a peptide spanning amino acids 77-113 of RGMa (also referred to herein as “N-inh”). […] In a complementary experiment, in which the N-Raft and N-inh peptides of RGMa were fused with AP instead of the 4Ig- and 6FNIII-domains of Neogenin, N-Raft bound to the 4Ig-domain and not the 6FNIII-domain while N-inh bound to the 6FNIII-domain and not the 4Ig-domain (FIG. 9). Additionally, N-inh and N-Raft coated beads pulled down 6FNIII-domain and 4Ig-domain, respectively, which was consistent with the ELISA results described above (FIG. 2B).
(§5) The assay was conducted in a 96-well microtiter plate (Corning Incorporated). The wells were coated with 100 μl (10 μg/mL) of Poly-L-Lysine at 4° C. overnight. Wells were then washed three times with 100 μl of PB ST (+0.02% Tween).
(§6) 50 μl (2.5 μg/mL) of His-tagged: Full-length Neogenin; the 4Ig-domain of Neogenin; and 6FNIII-domain of Neogenin were coated onto each well for 1 hour at 37° C. Following three washes of 100 μl PBST, each well was then blocked with 300 μl of 3% BSA in PBST for 1 hour at 37° C.
(§7) 50 μl (1.0 μg/mL) AP-tagged: N-RGMa (28-73); N-RGMa (28-54); N-RGMa (40-62); N-RGMa (54-73); N-RGMa (54-62) in 1% BSA+PBST was then added to each well and incubated at 37° C. for 1 hour. Each well was washed thoroughly three times with 100 μl PBST followed by subsequent equilibration of each well with Alkaline Phosphatase (AP) developing buffer (100 mM NaHCO3, 1 mM MgCl2). The reaction was developed using AP developing buffer supplemented with, p-nitrophenyl phosphate (pNPP) (Sigma-Aldrich) and allowed to develop until color development. The reaction was stopped with the addition of 50 μl (0.1M) NaOH. The absorbance of each reaction was measured using a microplate autoreader (BIO-TEK Instruments Inc.) at 405 nanometers (nm) wavelength.

[6] = target: T3, 4Ig-domain of Neogenin; experiment: as above; conditions: for interaction with the 4Ig-domain of Neogenin: ELISA, Neogenin domains fused to AP
From the text: as §2, §3, §4, §5, §6, §7

| Molecule | outgrowth on laminin [1] | outgrowth on myelin [1] | interaction with the 6FNIII-domain of Neogenin [5] | effect on axonal outgrowth when provided as growth substrate (in trans) [4] | interaction with the 4Ig-domain of Neogenin [6] | further results |
| --- | --- | --- | --- | --- | --- | --- |
| Clc1ccccc1CNCC1CCC(CNCc2ccccc2Cl)CC1 (stereo not shown) [AY-9944] | did not influence outgrowth on laminin | restored outgrowth on myelin | – | – | – | number of rods within the Outer Nuclear Layer (anti-Rhodopsin) ([2]; injected at P9, P21): dramatic increase in the number of rods; photoreceptor survival ([2]; two intra-peritoneal injections at P9 and P15, sacrificed at P21): promoted photoreceptor survival |
| O=C(O)c1ccc(CCN2CCN(C/C=C/c3ccc(Cl)cc3)CC2)cc1 [BM15.766] | did not influence outgrowth on laminin | restored outgrowth on myelin | – | – | – | – |
| N-inh: peptide spanning amino acids 77-113 of RGMa (GDLAYHSAVHGIDDLMVQHNCSKDGPTSQPRLRTLPP; left off: small tags and cut ends) | – | – | interacted | – | – | pull-down of 6FNIII-domain by peptide-coated beads [3]: pulled down; axonal growth on peptide as substrate ([4]; RGMa peptide as substrate, controls 238.1±9.3 μm): 88.1±13.3 μm |
| N-RGMa: N-terminal RGMa isoform of the CNS (protein, Mouse N-RGMa, N-terminal RGMa isoform of the CNS) MQPPRERLVVTGRAGWMGMGRGAGRSALGLWPTLAFLLCSFPAAISPCKILKCNSEFWSATSSGSHAPASDDVPEFCAALRTYALCTRRTARTCRGDLAYHSAVHGIEDLMSQHNCSKDGPTSQPRVRTLPPAGDSQERSDSPEICHYEKSFHKHSAAPNYT | – | – | interacted | blocked axon growth | interacted | – |
| RGMaΔ: RGMaΔ was full-length RGMa (protein) CKILKCNSEFWAATSGSHHLGAEETPEFCTALRAYAHCTRRTARTCRGDLAYHSAVHGIDDLMVQHNCSKDGPTSQPRLRTLPPGDSQERSDSPEICHYEKSFHKHSAAPNYTHCGLFGDPHLRTFTDTFQTCKVQGAWPLIDNNYLNVQVTNTPVLPGSSATATSKLTIIFKSFQECVEQKVYQAEMDELPAAFADGSKNGGDKHGANSLKITEKVSGQHIEIQAKYIGTTIVVRQVGRYLTFAVRMPEEVVNAVEDRDSQGLYLCLRGCPLNQQIDFQTFRLAQAAEGRARRKGPSLPAPPEAFTYESATAKCREKLPVEDLYFQSCVFDLLTTGDVNFMLAAYYAFEDVKMLHSNKDKLHLYERTRALAPGN | – | – | interacted | blocked axon growth | did not interact | binding to the 4Ig-domain of Neogenin ([6]; AP-tagged fragments 1.0 μg/mL on coated His-tagged 4Ig): did not bind |
